Assay results reported in patent US20230227545A1 (published 2023).

Tests used:
[1] = target: T1, cynomolgus IL-1β (cynomolgus macaque, UniProt P79182 117-268); assay: cell-based or functional assay
T1 sequence (looked up): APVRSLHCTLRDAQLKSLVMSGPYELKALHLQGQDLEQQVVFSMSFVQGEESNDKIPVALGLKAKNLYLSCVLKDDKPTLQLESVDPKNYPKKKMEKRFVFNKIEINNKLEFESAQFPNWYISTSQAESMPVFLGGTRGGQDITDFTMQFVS

[2] = target: T2, human IL-1β (human, UniProt P01584 117-269); assay: cell-based or functional assay
[3] = target: T2, human IL-1β; assay: cell-based or functional assay; remark: listed apart in the source
[4] = target: T2, human IL-1β; assay: cell-based or functional assay; remark: listed apart in the source
[5] = target: T3, pig IL-1β (pig, UniProt P26889 115-267); assay: SPR, Biacore 8K, mAb captured on anti-human Fc chip, soluble IL-1β as analyte
T3 construct: also called pig IL-β
T3 sequence (looked up): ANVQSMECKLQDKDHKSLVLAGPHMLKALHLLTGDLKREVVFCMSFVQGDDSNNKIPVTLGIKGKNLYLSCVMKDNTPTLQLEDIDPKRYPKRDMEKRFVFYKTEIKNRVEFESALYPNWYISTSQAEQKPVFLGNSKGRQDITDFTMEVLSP
Procedure: (§1) Affinity assessment of 05H21A, 15N14A, and 08F17A against human IL-1β was performed by Surface Plasmon Resonance (SPR) using a Biacore 8k. Cross-reactivity of the same antibody panel was also assessed against cyno, mouse, rat and pig IL-1β.
(§2) SPR is a label-free technique to study the strength of an interaction between two binding partners by measuring the change in mass upon complex formation and dissociation. Briefly, antibodies were immobilized on a sensor chip which was coupled with goat anti-human Fc (GAH-Fc C1 sensor chip). Soluble IL-1β was flowed over the immobilized antibody and association/dissociation responses were monitored. Kinetic information (on-rate and off-rate constants) were extracted by fitting sensorgrams to the 1:1 Langmuir model. Binding affinity (KD) were reported as the ratio of rate constants (koff/kₒₙ).

[6] = target: T1, cynomolgus IL-1β; assay: SPR, Biacore 8K, mAb captured on goat anti-human Fc C1 chip, soluble IL-1β as analyte, 1:1 Langmuir fit
Procedure: as §1, §2

[7] = target: T2, human IL-1β; assay: as above
Procedure: as §1, §2

B1: 05H21A (antibody, human IgG1, lambda, V domains shown)
VH: QVTLRESGPALVKPTQTLTLTCTFSGFSLSTSGMWVSWIRQPPGKALEWLALIDWGDDKYYTTSLKTRLTISKDTSKNQVVLTMTNMDPVDTATYYCARMREGSRAFDIWGQGTVVTVSS
VL: QSVLTQPPSVSEAPRQRVTISCSGSSSNIGDNAVNWYQQLPGKAPKLLIYNDDLLSSGVSDRFSGSKSGTSASLAISGLQSEDEADYYCAAWDDSLNGPVFGGGTKLTVLG
notes: Lambda light chain; also called 05H21A (anti-IL-1β) mAb [IgG1: YTE]
IC30, inhibition of G-CSF release, cynomolgus lung fibroblasts (CLF), 15 pM rcynoIL-1β [1]: 0.195 nM
IC30, inhibition of IL-6 release, cynomolgus dermal fibroblasts (CDF), 5 pM rcynoIL-1β [1]: 0.089 nM
IC30, inhibition of IL-6 release, cynomolgus lung fibroblasts (CLF), 15 pM rcynoIL-1β [1]: 0.214 nM
IC50, inhibition of G-CSF release, cynomolgus dermal fibroblasts (CDF), 5 pM rcynoIL-1β [1]: 0.059 nM
IC50, inhibition of G-CSF release, cynomolgus lung fibroblasts (CLF), 15 pM rcynoIL-1β [1]: 0.27 nM
IC50, inhibition of IL-6 release, cynomolgus dermal fibroblasts (CDF), 5 pM rcynoIL-1β [1]: 0.175 nM
IC50, inhibition of IL-6 release, cynomolgus lung fibroblasts (CLF), 15 pM rcynoIL-1β [1]: 0.306 nM
IC90, inhibition of G-CSF release, cynomolgus lung fibroblasts (CLF), 15 pM rcynoIL-1β [1]: 0.63 nM
IC90, inhibition of IL-6 release, cynomolgus dermal fibroblasts (CDF), 5 pM rcynoIL-1β [1]: 0.997 nM
IC90, inhibition of IL-6 release, cynomolgus lung fibroblasts (CLF), 15 pM rcynoIL-1β [1]: 0.779 nM
IC30, inhibition of rhIL-1β-induced CXCL5 release, human whole blood (5 donors) [2]: 0.4 nM
IC30, inhibition of rhIL-1β-induced G-CSF release, human whole blood (5 donors) [2]: 0.364 nM
IC30, inhibition of rhIL-1β-induced IL-6 release, human whole blood (5 donors) [2]: 0.393 nM
IC50, inhibition of rhIL-1β-induced CXCL5 release, human whole blood (5 donors) [2]: 0.622 nM
IC50, inhibition of rhIL-1β-induced G-CSF release, human whole blood (5 donors) [2]: 0.632 nM
IC50, inhibition of rhIL-1β-induced IL-6 release, human whole blood (5 donors) [2]: 0.631 nM
IC90, inhibition of rhIL-1β-induced CXCL5 release, human whole blood (5 donors) [2]: 1.95 nM
IC90, inhibition of rhIL-1β-induced G-CSF release, human whole blood (5 donors) [2]: 2.64 nM
IC90, inhibition of rhIL-1β-induced IL-6 release, human whole blood (5 donors) [2]: 2.16 nM
IC30, inhibition of rhIL-1β-induced cytokine release, NHDF donor 29114 [3]: 0.039 nM
IC30, inhibition of rhIL-1β-induced cytokine release, NHLF donor 34325 [3]: 0.071 nM
IC30, inhibition of rhIL-1β-induced cytokine release, NHLF donor 35234 [3]: 0.042 nM
IC50, inhibition of rhIL-1β-induced cytokine release, NHDF donor 29114 [3]: 0.078 nM
IC50, inhibition of rhIL-1β-induced cytokine release, NHLF donor 34325 [3]: 0.167 nM
IC50, inhibition of rhIL-1β-induced cytokine release, NHLF donor 35234 [3]: 0.098 nM
IC90, inhibition of rhIL-1β-induced cytokine release, NHDF donor 29114 [3]: 0.49 nM
IC90, inhibition of rhIL-1β-induced cytokine release, NHLF donor 34325 [3]: 1.51 nM
IC90, inhibition of rhIL-1β-induced cytokine release, NHLF donor 35234 [3]: 0.89 nM
IC30, inhibition of IL-6 release, human PBMCs (n=5 donors), 10 pM rhIL-1β [4]: 0.043 nM
IC30, inhibition of IL-6 release, human PBMCs (n=5 donors), 30 pM rhIL-1β [4]: 0.104 nM
IC50, inhibition of IL-6 release, human PBMCs (n=5 donors), 10 pM rhIL-1β [4]: 0.07 nM
IC50, inhibition of IL-6 release, human PBMCs (n=5 donors), 30 pM rhIL-1β [4]: 0.164 nM
IC90, inhibition of IL-6 release, human PBMCs (n=5 donors), 10 pM rhIL-1β [4]: 0.244 nM
IC90, inhibition of IL-6 release, human PBMCs (n=5 donors), 30 pM rhIL-1β [4]: 0.533 nM
binding result [5]: no binding
Kd [6]: 0.022 nM
koff [6]: 0.000348 s⁻¹
kon [6]: 1.58e+07 M⁻¹ s⁻¹
Kd [7]: 0.0197 nM
koff [7]: 0.000422 s⁻¹
kon [7]: 2.14e+07 M⁻¹ s⁻¹
